Consider 10 molecules from publication PMC10853778 (Nucleic Acids Research, 2022).

A word on the Kd: it is the constant that tells how readily two partners part at equilibrium. The term koff denotes a measure of how fast the partners let go of each other.

Data set [1] has as its target HA-tagged human RTEL1 HHD1+2 deletion construct (human) (UniProt Q9NZ71). Kind of data set: co-IP; whole-cell extracts of HEK293T cells overexpressing HA-tagged RTEL1 constructs; IP overnight at 4°C (anti-HA), protein G agarose, immunoblot for RPA; with or without 100 units Benzonase.
For data set [2], the target named is T1, RTEL1 HHD2 (Homo sapiens, UniProt Q9NZ71-6 1056-1140).
T1 sequence: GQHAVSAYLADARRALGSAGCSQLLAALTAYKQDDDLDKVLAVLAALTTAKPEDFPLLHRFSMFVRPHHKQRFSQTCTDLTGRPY
Kind of data set: ITC; pH 6.5; NMR: 20 mM Tris-HCl pH 7.4, 50 mM NaCl, 2 mM DTT, 0.02% NaN3, 10% D2O, 25 C (one ssDNA-22 titration at pH 6.5); ITC: 10 mM potassium phosphate pH 6.5, 50 mM KCl, 0.02% NaN3, 25 C. Conditions: protein: recombinant, tags: N-terminal 6xHis. (In general: In ITC the heat of successive injections is recorded.)

Another data set addresses T2, RTEL1 HHD1 (Homo sapiens, UniProt Q9NZ71-6 886-978).
T2 sequence: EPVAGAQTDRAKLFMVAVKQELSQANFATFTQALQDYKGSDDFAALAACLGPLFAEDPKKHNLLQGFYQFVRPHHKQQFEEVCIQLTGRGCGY
Kind of data set: NMR titration; NMR: 20 mM Tris-HCl pH 7.4, 50 mM NaCl, 2 mM DTT, 0.02% NaN3, 10% D2O, 25 C (one ssDNA-22 titration at pH 6.5); ITC: 10 mM potassium phosphate pH 6.5, 50 mM KCl, 0.02% NaN3, 25 C. Conditions: protein: recombinant; tags: N-terminal 6xHis; single strand.

Data set [3] deals with T1, RTEL1 HHD2. In words: NMR titration (TITAN); pH 6.5; NMR: 20 mM Tris-HCl pH 7.4, 50 mM NaCl, 2 mM DTT, 0.02% NaN3, 10% D2O, 25 C (one ssDNA-22 titration at pH 6.5); ITC: 10 mM potassium phosphate pH 6.5, 50 mM KCl, 0.02% NaN3, 25 C. Conditions: protein: recombinant; tags: N-terminal 6xHis; single strand.
Data set [4] addresses T1, RTEL1 HHD2. Kind of data set: NMR titration (TITAN); pH 7.4; NMR: 20 mM Tris-HCl pH 7.4, 50 mM NaCl, 2 mM DTT, 0.02% NaN3, 10% D2O, 25 C (one ssDNA-22 titration at pH 6.5); ITC: 10 mM potassium phosphate pH 6.5, 50 mM KCl, 0.02% NaN3, 25 C. Conditions: protein: recombinant, tags: N-terminal 6xHis.
Data set [5] deals with T1, RTEL1 HHD2. Kind of data set: NMR titration; pH 7.4; NMR: 20 mM Tris-HCl pH 7.4, 50 mM NaCl, 2 mM DTT, 0.02% NaN3, 10% D2O, 25 C (one ssDNA-22 titration at pH 6.5); ITC: 10 mM potassium phosphate pH 6.5, 50 mM KCl, 0.02% NaN3, 25 C. Conditions: protein: recombinant; tags: N-terminal 6xHis; single strand.
The target of data set [6] is T3, RPA 32C winged-helix domain (residues 172-270 of RPA32) (human, UniProt P15927 172-270).
T3 construct: RPA32 (RPA2), human, residues 172-270 (winged-helix 32C domain); pET-15b; uniformly 15N-labelled where it was the observed partner; source: E. coli BL21(DE3) pLysS, purified (Ni-NTA, Q column, SEC); not shown: His6, N-terminal, kept
T3 sequence (P15927 172-270): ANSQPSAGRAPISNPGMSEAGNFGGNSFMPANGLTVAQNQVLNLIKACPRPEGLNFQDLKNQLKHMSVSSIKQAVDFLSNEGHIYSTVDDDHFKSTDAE
In words: NMR titration; 15N-labelled partner titrated with unlabelled partner; 1H-15N HSQC, 25°C, 20 mM Tris-HCl pH 7.4, 50 mM NaCl, 2 mM DTT, 0.02% NaN3; Kd and Koff from TITAN 2D lineshape analysis, two-state model. Conditions: both partners purified.

The molecule “endogenous replication protein A (RPA) of HEK293T cells (from UniProt P27694 1-616; P15927 1-270; P35244 1-121) (complex)” had a reduction of co-immunoprecipitated RPA against full-length HA-RTEL1 in data set [1] of 80%. In the case of AGGATTAGGATTAGGATTAGGA (ssDNA) [ssDNA-22], the Kd with RTEL1 HHD2 [2] (single strand) came out at 940 ± 130 nM; with RTEL1 HHD2 [3] it was 3030 ± 640 nM; with RTEL1 HHD2 [4] (single strand), 14600 ± 1210 nM. The binding result with RTEL1 HHD1 was “no binding”. For the molecule TTAGGA (ssDNA) [ssDNA-6], in the data set with RTEL1 HHD2 [5], the binding result is recorded as “no binding”.

B1: RTEL1 harmonin homology domain 2 (residues 1056-1140) (domain or fragment, human, UniProt Q9NZ71-6 1056-1140, looked up)
chain: T1 sequence
notes: RTEL1, human, residues 1056-1140 (HHD2) of Uniprot Q9NZ71-6; uniformly 15N-labelled where it was the observed partner; also called HHD2; RTEL1 HHD2; source: E. coli Rosetta (DE3), purified (Ni-NTA, heparin, SEC); not shown: His6, N-terminal, kept
In data set [6], B1 displayed a Kd of 360000 nM and a koff of 8460 s⁻¹. Regarding TTAGGATTAGGA (ssDNA) [ssDNA-12], the Kd with RTEL1 HHD2 [2] (single strand) is 1510 ± 140 nM.

B2: dsDNA-22 (dsDNA)
DNA 1: AGGATTAGGATTAGGATTAGGA
DNA 2: TCCTAATCCTAATCCTAATCCT
Consider B2, for which the dissociation constant (Kd) in the data set with RTEL1 HHD2 [4] (blunt) is 19700 ± 4670 nM.

B3: dsDNA-24 (dsDNA)
DNA 1: TTAGGCAGAGAGAGAGAGTTAGGC
DNA 2: GCCTAACTCTCTCTCTCTGCCTAA
As to B3, the Kd with RTEL1 HHD2 [2] (blunt) was 1950 ± 310 nM.

B4: 5'ss_dsDNA-24 (mixed)
DNA 1: TTAGGCAGAGAGAGAGAGTTAGGC
DNA 2: GCCTAACTCTCTCTCTCT
Turning to B4, the Kd with RTEL1 HHD2 [2] (5' overhang 6 nt (strand 1)) is 2580 ± 270 nM.

B5: 3'ss_dsDNA-24 (mixed)
DNA 1: TTAGGCAGAGAGAGAGAGTTAGGC
DNA 2: CTCTCTCTCTCTGCCTAA
On to B5, for which, in the data set with RTEL1 HHD2 [2] (3' overhang 6 nt (strand 1)), the Kd came out at 1220 ± 90 nM. As to TTAGGCAGAGAGAGAGAGTTAGGC (ssDNA) [ssDNA-24], in the data set with RTEL1 HHD2 [2] (single strand), the Kd turned out to be 1320 ± 150 nM.
